{"source": "paper PMC11243337", "about": "“Self-Responsive Fluorescence Aptasensor for Lactoferrin Determination in Dairy Products”", "molecular_target": "Lactoferrin (Lf) (bovine (cow's milk), UniProt P24627 20-708)", "sequence (P24627 20-708)": "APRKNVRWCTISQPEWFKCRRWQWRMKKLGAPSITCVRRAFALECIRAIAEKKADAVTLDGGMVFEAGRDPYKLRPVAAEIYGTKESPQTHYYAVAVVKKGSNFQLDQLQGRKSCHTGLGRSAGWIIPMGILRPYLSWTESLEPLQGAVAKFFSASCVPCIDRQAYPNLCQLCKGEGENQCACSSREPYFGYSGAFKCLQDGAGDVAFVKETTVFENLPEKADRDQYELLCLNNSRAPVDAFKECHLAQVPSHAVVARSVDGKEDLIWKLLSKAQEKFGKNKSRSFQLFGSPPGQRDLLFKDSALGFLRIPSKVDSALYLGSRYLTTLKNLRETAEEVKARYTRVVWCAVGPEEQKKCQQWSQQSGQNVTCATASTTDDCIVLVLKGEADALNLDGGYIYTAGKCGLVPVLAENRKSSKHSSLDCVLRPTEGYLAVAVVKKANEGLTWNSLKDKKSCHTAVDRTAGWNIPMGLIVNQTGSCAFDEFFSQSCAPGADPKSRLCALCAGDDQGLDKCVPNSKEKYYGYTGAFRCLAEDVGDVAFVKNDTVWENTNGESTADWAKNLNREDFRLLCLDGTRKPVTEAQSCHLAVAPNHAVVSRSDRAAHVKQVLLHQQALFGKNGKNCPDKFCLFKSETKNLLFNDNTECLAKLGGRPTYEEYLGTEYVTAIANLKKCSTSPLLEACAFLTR", "experiment": "fluorescence quenching (6-FAM); Tris-EDTA, no added ions; Lf 5 and 40 ug/mL; Tris-EDTA pH 8.0, no added salt, 25 C, 10 min; 90 uL of 50 nM aptamer + 100 uL Lf (0-100 ug/mL); Ex 485/Em 528 nm. Specificity section (alpha-La, beta-Lg, BSA)", "conditions": "protein: commercial; label: 3'-6-FAM", "data": [{"binder": "TGGTGCTGCCCCTAGTCTCCGGCTGATAGCTGCTTCTTGG (ssDNA)", "note": "[Lf aptamer, 3'-6-FAM]", "values": [{"measurement": "binding result", "value": "binds"}]}]}
